Reference: the supplement of paper PMC10201428
± gives the standard deviation of the averaged measurements.

System: VchCAST RNA-guided transposition machinery (E. coli BL21(DE3) host, lacZ target)
Test: relative integration efficiency (T-RL orientation) vs wild-type transposon end (log2 (normalized fold change)); transposon end mutated: right end (5 bp flank + 75 bp right end); higher = more efficient transposition
Protocol: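 Pooled, barcoded VchCAST (Tn6677) mini-transposon donor libraries; each variable transposon-end sequence sits in a fixed pDonor mini-transposon context (10-bp barcode and cargo not included). Left- or right-end libraries were co-transformed with pEffector (TniQ-Cascade, TnsABC, lacZ crRNA, T7, 0.1 mM IPTG) into E. coli BL21(DE3) and grown 18 h at 37 C. T-LR and T-RL junction amplicons were sequenced; output/input barcode fold change was normalised to the mean of four wild-type barcodes and log2-transformed. Two biological replicates; zero-count/undetected variants carry floor values (-10 / -15), censored here. Barcode uncoupling by PCR recombination adds noise.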

ACAAAACTTGATACAACCATAAAATGATAATTACACCCATAAATTGATAATTATCACACCCATAAATTGATATTGCCTCTGATCATAGTCAGACCAACATTGCTACGACCCGTATTCGCACCGACAC
relative integration efficiency (log2): -6.59 ± 0.45

ACAGGGTTTGATACAACCATAAAATGATAATTACACCCATAAATTGATAATTATCACACCCATAAATTGATATTGCCTCTGATCATAGTCAGACCAACATTGCTACGACCCGTATTCGCACCGACAC
relative integration efficiency (log2): -7.26 ± 0.17

ACATAACATGATACAACCATAAAATGATAATTACACCCATAAATTGATAATTATCACACCCATAAATTGATATTGCCTCTGATCATAGTCAGACCAACATTGCTACGACCCGTATTCGCACCGACAC
relative integration efficiency (log2): -5.71 ± 0.74

ACATGGTGTGATACAACCATAAAATGATAATTACACCCATAAATTGATAATTATCACACCCATAAATTGATATTGCCTCTGATCATAGTCAGACCAACATTGCTACGACCCGTATTCGCACCGACAC
relative integration efficiency (log2): -6.87 ± 0.18

ACATTACTTGATACAACCATAAAATGATAATTACACCCATAAATTGATAATTATCACACCCATAAATTGATATTGCCTCTGATCATAGTCAGACCAACATTGCTACGACCCGTATTCGCACCGACAC
relative integration efficiency (log2): -6.45 ± 0.27

ACATTAGTCGATACAACCATAAAATGATAATTACACCCATAAATTCATAATTATCACACCCAATTTAACTATAACGCTCTGATCATAGTCAGACCAACATTGCTACGACCCGTATTCGCACCGACAC
relative integration efficiency (log2): -7.36 ± 0.82

ACATTAGTGGATACAACCATAAAATGATAATTACACCCATAAATGGATCATTATCACACCCAATTTAACTATAACGCTCTGATCATAGTCAGACCAACATTGCTACGACCCGTATTCGCACCGACAC
relative integration efficiency (log2): -6.91 ± 0.47

ACATTAGTTCATACAACCATAAAATGATAATTACACCCATAAATTCATAATTATCACACCCAATTTAACTATAACGCTCTGATCATAGTCAGACCAACATTGCTACGACCCGTATTCGCACCGACAC
relative integration efficiency (log2): -6.79 ± 0.48

ACATTAGTTCATACAACCATAAAATGATAATTACACCCATAAATTGATAATTATCACACCCAATTTAACTATAACGCTCTGATCATAGTCAGACCAACATTGCTACGACCCGTATTCGCACCGACAC
relative integration efficiency (log2): -7.98 ± 0.089

ACATTAGTTCATACAACCATAAAATGATAATTACACCCATAAATTGATCATTATCACACCCAATTTAACTATAACGCTCTGATCATAGTCAGACCAACATTGCTACGACCCGTATTCGCACCGACAC
relative integration efficiency (log2): -7.24 ± 0.69

ACATTGGTCGATACAACCATAAAATGATAATTACACCCATAAATGGATAATTATCACACCCAATTTAACTATAACGCTCTGATCATAGTCAGACCAACATTGCTACGACCCGTATTCGCACCGACAC
relative integration efficiency (log2): -7.16 ± 0.89

ACATTGGTCGATACAACCATAAAATGATAATTACACCCATAAATGGATCATTATCACACCCAATTTAACTATAACGCTCTGATCATAGTCAGACCAACATTGCTACGACCCGTATTCGCACCGACAC
relative integration efficiency (log2): -7.2 ± 0.28

ACATTGGTGGATACAACCATAAAATGATAATTACACCCATAAATTGATAATTATCACACCCAATTTAACTATAACGCTCTGATCATAGTCAGACCAACATTGCTACGACCCGTATTCGCACCGACAC
relative integration efficiency (log2): -6.88 ± 0.39

ACATTGGTTCATACAACCATAAAATGATAATTACACCCATAAATGGATCATTATCACACCCAATTTAACTATAACGCTCTGATCATAGTCAGACCAACATTGCTACGACCCGTATTCGCACCGACAC
relative integration efficiency (log2): -7.4 ± 0.26

ACATTGGTTCATACAACCATAAAATGATAATTACACCCATAAATTGATCATTATCACACCCAATTTAACTATAACGCTCTGATCATAGTCAGACCAACATTGCTACGACCCGTATTCGCACCGACAC
relative integration efficiency (log2): -7.14 ± 0.11

ACATTGTGGGATACAACCATAAAATGATAATTACACCCATAAATTGATAATTATCACACCCATAAATTGATATTGCCTCTGATCATAGTCAGACCAACATTGCTACGACCCGTATTCGCACCGACAC
relative integration efficiency (log2): -5.61 ± 0.22

ACATTTCAACATACAACCATAAAATGATAATTACACCCATAAATTGATAATTATCACACCCATAAATTGATATTGCCTCTGATCATAGTCAGACCAACATTGCTACGACCCGTATTCGCACCGACAC
relative integration efficiency (log2): -6.21 ± 0.12

ACATTTGAACTTACAACCATAAAATGATAATTACACCCATAAATTGATAATTATCACACCCATAAATTGATATTGCCTCTGATCATAGTCAGACCAACATTGCTACGACCCGTATTCGCACCGACAC
relative integration efficiency (log2): -5.07 ± 0.78

ACATTTGTAAAAAAAACCATACGTTGATTTTACGAAACCATACGCTGAAATAAAAACAACCATACCTTGAAATTGCTTATGATCATAGTCAGACCAACATTGCTACGACCCGTATTCGCACCGACAC
relative integration efficiency (log2): -8.13 ± 1.3

ACATTTGTAAAAAAAACCATACGTTGATTTTACGAAACCATACGCTGAAATAATCACAACCATAAATTGATATTGCCTCTGATCATAGTCAGACCAACATTGCTACGACCCGTATTCGCACCGACAC
relative integration efficiency (log2): -6.87 ± 0.53

ACATTTGTAAAAAAAACCATACGTTGATTTTACGAAACCATACGCTGAAATAATCACAACCATACCTTGAAATTGCCTCTGATCATAGTCAGACCAACATTGCTACGACCCGTATTCGCACCGACAC
relative integration efficiency (log2): -7.16 ± 0.43

ACATTTGTAAAAAAAACCATACGTTGATTTTACGAAACCATACGCTGAAATAATCACACCCATAAATTGAAATTGCCTCTGATCATAGTCAGACCAACATTGCTACGACCCGTATTCGCACCGACAC
relative integration efficiency (log2): -5.81 ± 0.093

ACATTTGTAAAAAAAACCATACGTTGATTTTACGAAACCATACGCTGAAATAATCACACCCATAAATTGATATTGCCTCTGATCATAGTCAGACCAACATTGCTACGACCCGTATTCGCACCGACAC
relative integration efficiency (log2): -7.11 ± 0.15

ACATTTGTTAATAAAACCATACGTTGATTTTACGAAACCATACGCTGAAATAATCACACCCATAAATTGATATTGCCTCTGATCATAGTCAGACCAACATTGCTACGACCCGTATTCGCACCGACAC
relative integration efficiency (log2): -6.57 ± 0.26

ACATTTGTTCAACCATAAAATGATAATTACACCCATAAATTGATAATTATCACACCCATAAATTGATATTGCCTCTGATCATAGTCAGACCAACATTGCTACGACCCGTATTCGCACCGACACTGAC
relative integration efficiency (log2): -7.3 ± 0.12

ACATTTGTTCATACAACCCTAAAATGATAATTACACCCATAAATTCATAATTATCACCCCCAATTTAACTATAACGCTCTGATCATAGTCAGACCAACATTGCTACGACCCGTATTCGCACCGACAC
relative integration efficiency (log2): -5.3 ± 0.43

ACATTTGTTGAAAAAACCATACGTTGATTTTACGAAACCATACGCTGAAATAATCACACCCATAAATTGATATTGCCTCTGATCATAGTCAGACCAACATTGCTACGACCCGTATTCGCACCGACAC
relative integration efficiency (log2): -6.48 ± 0.15

ACATTTGTTGATAACCAACGCCCCGTCGCCGGCACAAACGCCCGGTCGCCGGCGACACAAACGCCCGGTCGCGGTAAGAGGATCATAGTCAGACCAACATTGCTACGACCCGTATTCGCACCGACAC
relative integration efficiency (log2): -6.24 ± 0.19

ACATTTGTTGATAACCAACGCCCCGTCGCCGGCCACCCATAAATTGATAATTATCACACCCATAAATTGATATTGCCTCTGATCATAGTCAGACCAACATTGCTACGACCCGTATTCGCACCGACAC
relative integration efficiency (log2): -7.56 ± 0.64

ACATTTGTTGATACAACACGCCCCGTCGCCGGCACAAACGCCCGGTCGCCGGCGACACAAACGCCCGGTCGCGGTAAGAGGATCATAGTCAGACCAACATTGCTACGACCCGTATTCGCACCGACAC
relative integration efficiency (log2): -6.42 ± 0.17

ACATTTGTTGATACAACCATAAAATGATAATTAATAATTATTTATAATCAGCAACACCCATAAATTGATAATTATCACACCCATAAATTGATATTGCCTCTGATCATAGTCAGACCAACATTGCTAC
relative integration efficiency (log2): -3.61 ± 0.38

ACATTTGTTGATACAACCATAAAATGATAATTAATAATTATTTATAATCAGCAACTTAACCACAAAACACCCATAAATTGATAATTAACAAAACACCCATAAATTGATATTGCTGTGAATCGAGTAT
relative integration efficiency (log2): -5.86 ± 0.28

ACATTTGTTGATACAACCATAAAATGATAATTAATAATTATTTATAATCAGCAACTTAACCACAAAACACCCATAAATTGATAATTAACAAACACCCATAAATTGATATTGCCTCTGATCATAGTCA
relative integration efficiency (log2): -5.35 ± 0.69

ACATTTGTTGATACAACCATAAAATGATAATTAATAATTATTTATAATCAGCAACTTAACCACAAAACACCCATAAATTGATAATTAACACACCCATAAATTGATATTGCCTCTGATCATAGTCAGA
relative integration efficiency (log2): -5.33 ± 0.24

ACATTTGTTGATACAACCATAAAATGATAATTAATAATTATTTATAATCAGCAACTTAACCACAAAACACCCATAAATTGATAATTATCACACCCATAAATTGATATTGCCTCTGATCATAGTCAGA
relative integration efficiency (log2): -4.6 ± 1

ACATTTGTTGATACAACCATAAACGTCGCCGGCACAAACGCCCGGTCGCCGGCGACACAAACGCCCGGTCGCGGTAAGAGGATCATAGTCAGACCAACATTGCTACGACCCGTATTCGCACCGACAC
relative integration efficiency (log2): -6.69 ± 0.61

ACATTTGTTGATACAACCATACCCGGATAATTACACCCATACCGGGATAATTATCACACCCATACCGGGATATTGCCTCTGATCATAGTCAGACCAACATTGCTACGACCCGTATTCGCACCGACAC
relative integration efficiency (log2): -6.7 ± 0.28

ACATTTGTTGATACAACCATACCCGTATAATTACACCCATACCGGTATAATTATCACACCCATACCGGTATATTGCCTCTGATCATAGTCAGACCAACATTGCTACGACCCGTATTCGCACCGACAC
relative integration efficiency (log2): -8.04 ± 1.3

ACATTTGTTGATACAACCATATTTACATAATTACACCCATATTAACATAATTATCACACCCATATTAACATATTGCCTCTGATCATAGTCAGACCAACATTGCTACGACCCGTATTCGCACCGACAC
relative integration efficiency (log2): -7.03 ± 0.43

ACATTTGTTGATACAACCATCCCCGTCGCCGGCACAAACGCCCGGTCGCCGGCGACACAAACGCCCGGTCGCGGTAAGAGGATCATAGTCAGACCAACATTGCTACGACCCGTATTCGCACCGACAC
relative integration efficiency (log2): -7.485 ± 0.063

ACATTTGTTGATACAACCCGCCCCGTCGCCGGCACAAACGCCCGGTCGCCGGCGACACAAACGCCCGGTCGCGGTAAGAGGATCATAGTCAGACCAACATTGCTACGACCCGTATTCGCACCGACAC
relative integration efficiency (log2): -8.51 ± 0.73
